In IntAct's records for PubMed 29150600:

Molecular target: tlr4_human TLR4 (UniProt O00206)
Sequence (O00206 whole entry): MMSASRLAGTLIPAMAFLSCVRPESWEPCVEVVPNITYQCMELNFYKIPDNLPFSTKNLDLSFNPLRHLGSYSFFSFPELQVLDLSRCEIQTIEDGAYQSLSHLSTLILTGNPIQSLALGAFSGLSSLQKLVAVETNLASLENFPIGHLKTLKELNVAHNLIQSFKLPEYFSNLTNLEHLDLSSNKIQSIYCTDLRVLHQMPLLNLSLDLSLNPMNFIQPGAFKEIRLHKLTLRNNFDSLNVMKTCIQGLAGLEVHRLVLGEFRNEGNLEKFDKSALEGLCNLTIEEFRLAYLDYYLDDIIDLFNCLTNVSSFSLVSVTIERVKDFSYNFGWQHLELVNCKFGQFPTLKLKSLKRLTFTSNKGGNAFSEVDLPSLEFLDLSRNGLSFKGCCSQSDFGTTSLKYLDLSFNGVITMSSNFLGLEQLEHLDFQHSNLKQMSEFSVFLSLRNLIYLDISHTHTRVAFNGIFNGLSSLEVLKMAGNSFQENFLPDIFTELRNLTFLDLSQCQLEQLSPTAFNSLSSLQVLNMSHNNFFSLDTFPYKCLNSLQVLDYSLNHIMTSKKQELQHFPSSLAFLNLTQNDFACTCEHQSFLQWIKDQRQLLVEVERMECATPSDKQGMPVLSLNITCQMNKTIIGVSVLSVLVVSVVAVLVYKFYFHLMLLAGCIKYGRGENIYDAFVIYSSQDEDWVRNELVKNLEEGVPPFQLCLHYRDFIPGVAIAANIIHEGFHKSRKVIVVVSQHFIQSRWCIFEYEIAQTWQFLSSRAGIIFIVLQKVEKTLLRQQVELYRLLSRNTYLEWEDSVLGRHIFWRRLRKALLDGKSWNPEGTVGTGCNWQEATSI

Tenascin (Homo sapiens), P24821 K2096A;R2098A;K2100A;K2102A;D2130P;I2133L;N2135S
effect of a mutation on the interaction: decreasing interaction strength

Tenascin (Homo sapiens), P24821 K2100A;K2102A
effect of a mutation on the interaction: decreasing interaction strength

Tenascin (Homo sapiens), P24821 D2130P;I2133L;N2135S
effect of a mutation on the interaction: decreasing interaction strength

Tenascin (Homo sapiens), P24821 K2096A;R2098A;K2100A;K2102A
effect of a mutation on the interaction: decreasing interaction strength

Tenascin (Homo sapiens), P24821 K2096A;R2098A
effect of a mutation on the interaction: decreasing interaction strength
